Tests used:
[1] = target: H2A.Z-containing nucleosome (H. sapiens histone octamer, H2B labeled with ATTO643) assembled on lambda-DNA (H. sapiens) (UniProt P0C0S5); experiment: single-molecule DNA curtains (TIRF; two-colour co-localization); ATTO643-labeled H2A.Z nucleosomes on sparsely chromatinized double-tethered lambda-DNA, washed with 350 mM NaCl; LD555-INO80 flushed in, flow stopped; DNA curtains buffer with 1 mM ATP
[2] = target: S. cerevisiae wild-type INO80 complex, labeled with LD555 (S. cerevisiae) (UniProt P53115); experiment: single-molecule DNA curtains (TIRF; fluorescence intensity and photobleaching steps); LD555-labeled INO80 on double-tethered lambda-DNA; 20 mM HEPES pH 8.0, 1 mg/mL BSA, 4 mM Mg(OAc)2, 1 mM ATP, 1 mM DTT, 120 mM KGlu; 125 to 250 pM INO80 injected

Substance | co-localization time, second population (short associations) [1] [s] | co-localization time, third population (extremely long-lived co-localizations) [1] [s] | median interaction (co-localization) time [1] [s] | percent of DNA-bound complexes that are dimers [2] [%] | stoichiometry N [2]
S. cerevisiae wild-type INO80 complex, labeled with LD555 (from UniProt P53115 1-1489; Q03940 1-463; Q12464 1-471; P53946 1-755; P32617 1-166; P60010 1-375; P80428 1-489; Q12386 1-881; P35189 1-244; P40154 1-320; Q08561 1-116; P43579 1-692; Q12345 1-250; P40060 1-125; Q03435 1-203) | 16.6 | 1200 | 15.3 |  | 
S. cerevisiae wild-type INO80 complex, labeled with LD555 (from UniProt P53115 1-1489; Q03940 1-463; Q12464 1-471; P53946 1-755; P32617 1-166; P60010 1-375; P80428 1-489; Q12386 1-881; P35189 1-244; P40154 1-320; Q08561 1-116; P43579 1-692; Q12345 1-250; P40060 1-125; Q03435 1-203) (complex; LD555 on the ybbR-tag (Sfp with LD555-CoA); LD555 on the ybbR-tag (Sfp with LD555-CoA)) |  |  |  | 11 | 2

From PMC13623949
